Positions count from the first letter of the chain named.
B1: 2E2 (VHH)
VHH: EVQLVESGGGLVQPGGSLRLSCVASGFSLDDYGMTWVRQAPGKGLEWVSSINWSGTHTDYADSVKGRFTISRDNAKNTLFLQMNSLTPEDTAVYYCNQGWKIIPTDRRGHGTQVTVSS
notes: C-term myc-His6 tag
B2: 2H3 (VHH)
VHH: B1 VHH
notes: C-term myc-His6 tag
B3: 2E3 (VHH)
VHH: B1 VHH with T87S, I103L, D106N, R108G, G109S
notes: C-term myc-His6 tag
B4: 17H4 (VHH)
VHH: B1 VHH with D30I, D31N, G33A, Q82H, S85N, T87S, N97G, I103H, T105A, R108G
notes: C-term myc-His6 tag
B5: 17B8 (VHH)
VHH: B1 VHH with I103L, T105A, D106E
notes: C-term myc-His6 tag
B6: 15G8 (VHH)
VHH: B1 VHH with R19K, S54N, D62Y, D90N, I103L, T105A, D106E
notes: C-term myc-His6 tag
B7: 15D1 (VHH)
VHH: B1 VHH with G33A, T87N, I102V, I103W, R108G, G109T
notes: C-term myc-His6 tag
B8: 13B10 (VHH)
VHH: B1 VHH with L45F, T87S, I103L, D106N, R108G, G109S
notes: C-term myc-His6 tag
B9: 15C5 (VHH)
VHH: B1 VHH with R19K, S54N, G55V, D62Y
notes: C-term myc-His6 tag
B10: 15C11 (VHH)
VHH: B1 VHH with I103L, T105A, D106E, Q113P
notes: C-term myc-His6 tag
B11: 27G8 (VHH)
VHH: B1 VHH with I103L, T105A, D106E
notes: C-term myc-His6 tag
B12: 17H3 (VHH)
VHH: B1 VHH with V5M, T87R, P88S, I103V, R108G
notes: C-term myc-His6 tag
B13: 29H2 (VHH)
VHH: B1 VHH with S85N
notes: C-term myc-His6 tag
B14: 17D2 (VHH)
VHH: B1 VHH with T87R, P88S, I103V, R108G, G109S
notes: C-term myc-His6 tag
B15: 17A2 (VHH)
VHH: B1 VHH with G33A, T87S, Q98K, I102V, I103W, R108G, G109T
notes: C-term myc-His6 tag
B16: 17E4 (VHH)
VHH: B1 VHH with T69V, T87S
notes: C-term myc-His6 tag
B17: 13D11 (VHH)
VHH: B1 VHH with Q13H, A24G, Q39R, T87N, N97G, I103V, D106N, R107P
notes: C-term myc-His6 tag
B18: 13D2 (VHH)
VHH: B1 VHH with S85N, T87R, P88S, Y95S, I103V, R108G
notes: C-term myc-His6 tag
B19: 38C6 (VHH)
VHH: B1 VHH with A24G, G33A, T87S, I103R, D106I, R107P, R108M
notes: C-term myc-His6 tag
B20: 2H4 (VHH)
VHH: EVQLVESGGSLVQPGGSLRLSCAASGFTFDDYAMTWVRQAPGKGLEWVSSINWSGTHTDYTDSVKGRFTISRNNANNTLYLQMNSLKSEDTAVYYCAKNWGDAGTTWFEKSGSAGQGTQVTVSS
notes: C-term myc-His6 tag
B21: 30H9 (VHH)
VHH: B20 VHH
notes: C-term myc-His6 tag
B22: 13D8 (VHH)
VHH: B20 VHH with P41S
notes: C-term myc-His6 tag
B23: 30E10 (VHH)
VHH: B20 VHH with E1K, Q13P
notes: C-term myc-His6 tag
B24: 2D4 (VHH)
VHH: B20 VHH with T61A, E89D, Q116P
notes: C-term myc-His6 tag
B25: 27G2 (VHH)
VHH: B20 VHH with A40T, E89D, Q116P
notes: C-term myc-His6 tag
B26: 15G1 (VHH)
VHH: B20 VHH with Q13P, T35S, G101R
notes: C-term myc-His6 tag
B27: 39C1 (VHH)
VHH: B20 VHH with Q13P, A33G, T35S
notes: C-term myc-His6 tag
B28: 13B2 (VHH)
VHH: B20 VHH with T35S, V48I, T58K, T61A, S85N, S88F, G101R
notes: C-term myc-His6 tag
B29: 27B1 (VHH)
VHH: B20 VHH with T35S, V48I, T61A, S85N, S88F, G101R
notes: C-term myc-His6 tag
B30: 17D8 (VHH)
VHH: B20 VHH with Q13P, A24V, T35S, T78M, G101R
notes: C-term myc-His6 tag
B31: 17E2 (VHH)
VHH: B20 VHH with Q13P, A33G, T35S
notes: C-term myc-His6 tag
B32: 5F8 (VHH)
VHH: B20 VHH with M34L, T35S, V48I, T61A, S85N, S88F, G101R
notes: C-term myc-His6 tag
B33: 2E5 (VHH)
VHH: B20 VHH with G16E, T35S, V48I, T61A, S85N, S88F, G101R
notes: C-term myc-His6 tag
B34: 15F9 (VHH)
VHH: B20 VHH with D62G, E89D
notes: C-term myc-His6 tag
B35: 27D4 (VHH)
VHH: B20 VHH with P41S, T61A
notes: C-term myc-His6 tag
B36: 17G8 (VHH)
VHH: B20 VHH with Q13P, T35S, D59G
notes: C-term myc-His6 tag
B37: 29H1 (VHH)
VHH: B20 VHH with Q13P, T35S, D59G
notes: C-term myc-His6 tag
B38: 17E10 (VHH)
VHH: B20 VHH with Y60C
notes: C-term myc-His6 tag
B39: 17E7 (VHH)
VHH: B20 VHH with T35S, A40V, T61A, G101R
notes: C-term myc-His6 tag
B40: 118N121_A1_4_OK/1-127 (VHH)
VHH: EVQLVESGGGFVQTGGSPRLSCAASGRSFSEYAAAWFRQSPGKERDLVAGIMWDGRSLFYADSVKGRFTISRDNAKNTLHLQMNSLKPEDTAVYYCAYHKTPYTTLELNRPHAFGSWGQGTQVTVSS
notes: C-term myc-His6 tag
B41: 17E3 (VHH)
VHH: EVQLVESGGGLVQAGGSLRLSCVASKMTFMRYTMGWYRQAPGKQRDLVASIDSSGGTNYADSVKGRFTISRDNAKNTVYLEMNSLTPEDTAVYYCNQGWKIVPTDRTGHGTQVTVSS
notes: C-term myc-His6 tag
B42: 5G4 (VHH)
VHH: EVQLVESGGGLVQPGGSLTLSCAGSGFIFDDYAMSWVRQAPGKGLEWVSSINWSGSHRNYADSVKGRFTISRDNAKKTLYLQMNSLKSEDTAVYYCATGWQSTTKNQNYWGQGTQVTVSS
notes: C-term myc-His6 tag
B43: 15B7 (VHH)
VHH: B42 VHH with T19K, G24A, S50A, L79V, K87Q, A97G, N106S, N108G
notes: C-term myc-His6 tag
B44: 15G7 (VHH)
VHH: B42 VHH with T19R, G24A, S50A, S56T, A75N, L79V, N108G
notes: C-term myc-His6 tag
B45: 2C1 (VHH)
VHH: B1 VHH with A61T
notes: C-term myc-His6 tag
B46: 2B4 (VHH)
VHH: B1 VHH with A24G, G33A, T87S, I103R, D106I, R107P, R108M
notes: C-term myc-His6 tag
B47: 2B1 (VHH)
VHH: B20 VHH with E89D, Q116P
notes: C-term myc-His6 tag

target: T1, Epidermal Growth Factor Receptor 2 (HER2) (human, UniProt P04626 23-1255); test: FMAT competition on SKBR3 cells, periplasmic extract
T1 construct: whole, on cells; the cell line is named under assay; also called ErbB-2; ERBB2

Row | % blocking of Herceptin binding [%] | Binder
1 | > 90 | B1
2 | > 90 | B2
3 | > 90 | B3
4 | > 90 | B4
5 | > 90 | B5
6 | > 90 | B6
7 | > 90 | B7
8 | > 90 | B8
9 | > 90 | B9
10 | > 90 | B10
11 | > 90 | B11
12 | > 90 | B12
13 | > 90 | B13
14 | > 90 | B14
15 | > 90 | B15
16 | > 90 | B16
17 | > 90 | B17
18 | > 90 | B18
19 | > 90 | B19
20 | > 90 | B20
21 | > 90 | B21
22 | > 90 | B22

Row | % blocking of Herceptin binding [%] | Binder
23 | > 90 | B23
24 | > 90 | B24
25 | > 90 | B25
26 | > 90 | B26
27 | > 90 | B27
28 | > 90 | B28
29 | > 90 | B29
30 | > 90 | B30
31 | > 90 | B31
32 | > 90 | B32
33 | > 90 | B33
34 | > 90 | B34
35 | > 90 | B35
36 | > 90 | B36
37 | > 90 | B37
38 | > 90 | B38
39 | > 90 | B39
40 | > 90 | B40
41 | > 90 | B41
42 | > 90 | B42
43 | > 90 | B43
44 | > 90 | B44

target: T2, recombinant human ErbB2/Fc chimera (human, UniProt P04626 23-652); test: SPR (Biacore 3000), periplasmic extract over immobilised rhErbB2-Fc
T2 construct: bought from R&D Systems; also called rhErbB2-Fc; rhErb2-Fc; Fc part of the bought chimera not given; not described

Row | koff [s⁻¹] | Binder
45 | 0.00118 | B45
46 | 0.00277 | B46
47 | 0.00161 | B20
48 | 0.00165 | B24
49 | 0.00155 | B47

Source: US20150232562A1 (Ablynx, published 2015)
